From PMC3538687, “Detection of Cyclic Diguanylate G-Octaplex Assembly and Interaction with Proteins”

Key:
[1] = biological target: T1, HIV-1 reverse transcriptase (HIV RT) (HIV-1 (HXB2 strain), UniProt P04585;P04585 588-1147;588-1027); assay: competition (DRaCALA); unlabeled PF1 vs 5 nM 32P-PF1; 960 nM RT; conditions: protein: commercial; copies: 1;1
[2] = biological target: T1, HIV-1 reverse transcriptase (HIV RT); assay: competition (DRaCALA); conditions: protein: commercial; copies: 1;1
Thrombin protease = Thrombin protease (UniProt P00734;P00734 328-363;364-622); assay: DRaCALA; 8 µM thrombin; DRaCALA on dry nitrocellulose, 10 min at room temperature; binding buffer and pH not given in the material. cdiGMP G8/M/D binding (a cyclic dinucleotide ligand)

Row | Binder | binding result [2] | other results
1 | AGGAAGGCTTTAGGTCTGAGATCTCGGAAT (structured_DNA) [PF1] | – | IC50 [1]: 4 µM
2 | CGCCTGACCCTTCAGGCGTTGGGTGGGTGGGTGGG (structured_DNA) [S4] | binds | –
3 | TAATACCCCCCCTTCGGTGCAAAGCACCGAAGGGGGGG (structured_DNA) [38 NT SELEX] | binds | –
4 | GGTTGGTGTGGTTGG (structured_DNA) [TBA25] | – | binding result (Thrombin protease): binds
